The values below come from PMC12217004, “Evolutionary regulation of human Fas ligand (CD95L) by plasmin in solid cancer immunotherapy” (Nature Communications, 2025).

Residue numbers refer to the chain shown, from its start. Numbers in names are those of the source.

The target of data set [1] is Rhesus monkey Fas ligand extracellular domain, shortest form (RhFasL^ST) (Rhesus monkey) (UniProt P63307). Briefly: SEC; freshly purified FasL in PBS, 10 ug loaded on Superdex 200 10/300 GL, 1 ml/min, A280; trimer and monomer peaks. In general terms: SEC sorts molecules by how far they enter the pores of the column.
The target in data set [2] is murine Fas ligand extracellular domain, shorter form, His-tagged (muFasL^S, 134-281) (mouse) (UniProt P41047). Briefly: non-reducing gel with 60% lowered SDS, FasL immunoblot; his-tagged human and murine FasL forms added onto murine 4T1 cells (also human OVCAR3 cells) for 2 hr in serum-free media; supernatant precipitated and loaded without boiling on non-reducing gels.

Data set [3] addresses human Fas ligand extracellular domain, shortest form, His-tagged (HuFasL^ST, 146-281) (human) (UniProt P48023). Briefly: SEC; freshly purified FasL in PBS, 10 ug loaded on Superdex 200 10/300 GL, 1 ml/min, A280; trimer and monomer peaks.
The target of data set [4] is murine Fas ligand extracellular domain, long form, His-tagged (muFasL^L, 103-281) (mouse) (UniProt P41047). Briefly: non-reducing gel with 60% lowered SDS, FasL immunoblot; his-tagged human and murine FasL forms added onto murine 4T1 cells (also human OVCAR3 cells) for 2 hr in serum-free media; supernatant precipitated and loaded without boiling on non-reducing gels. On the technique in general: A western blot detects proteins with antibodies after separation by electrophoresis.

In data set [5] the target is T1, human Fas ligand extracellular domain, shorter form, His-tagged (HuFasL^S, 134-281) (human), P48023.
T1 chain: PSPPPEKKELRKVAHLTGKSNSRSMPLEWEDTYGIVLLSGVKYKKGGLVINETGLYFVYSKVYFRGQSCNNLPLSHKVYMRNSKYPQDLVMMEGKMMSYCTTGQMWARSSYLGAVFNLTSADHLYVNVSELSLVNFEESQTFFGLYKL
The experiment in a line: SEC; freshly purified FasL in PBS, 10 ug loaded on Superdex 200 10/300 GL, 1 ml/min, A280; trimer and monomer peaks. The settings on record: remark: other sources report otherwise.

Data set [6] deals with the molecule itself. Described as above.

For orientation: stoichiometry N means the number of molecules, sites or subunits per partner or assembly. Turning to “Rhesus monkey Fas ligand extracellular domain, shortest form (RhFasL^ST) (from UniProt P63307 146-280) (domain or fragment)”, the stoichiometry N in data set [1] was found to be 3.
For “murine Fas ligand extracellular domain, shorter form, His-tagged (muFasL^S, 134-281) (from UniProt P41047 134-279) (domain or fragment)”, the stoichiometry N in data set [2] came out at 3.
With “human Fas ligand extracellular domain, shortest form, His-tagged (HuFasL^ST, 146-281) (from UniProt P48023 146-281) (domain or fragment)”, the stoichiometry N in data set [3] is 3.
“murine Fas ligand extracellular domain, long form, His-tagged (muFasL^L, 103-281) (from UniProt P41047 103-279) (domain or fragment)” gave a stoichiometry N in data set [4] of 3.

B1: human Fas ligand extracellular domain, shorter form, His-tagged (HuFasL^S, 134-281), P48023 134-281 (domain or fragment)
chain: T1 chain
On to B1, for which, in data set [5], the stoichiometry N is 3.

B2: human Fas ligand extracellular domain, shorter form, S153P (HuFasL-S153P^S, 134-281) (domain or fragment, UniProt P48023 134-281, looked up)
chain: T1 chain with S20P
notes: human Fas ligand (FasL), residues 134-281 with S153P; The substitution was engineered here; source: Freestyle CHO-S cells, transfected, purified from supernatant (his-TRAP)
Regarding B2, the “stoichiometry N” value in data set [6] came out at 3.

B3: human Fas ligand extracellular domain, long form, His-tagged (HuFasL^L, 103-281) (domain or fragment, UniProt P48023 103-281, looked up)
chain: QLFHLQKELAELRESTSQMHTASSLEKQIGHPSPPPEKKELRKVAHLTGKSNSRSMPLEWEDTYGIVLLSGVKYKKGGLVINETGLYFVYSKVYFRGQSCNNLPLSHKVYMRNSKYPQDLVMMEGKMMSYCTTGQMWARSSYLGAVFNLTSADHLYVNVSELSLVNFEESQTFFGLYKL
notes: human Fas ligand (FasL, CD95L), entire extracellular domain, residues 103-281 (Q103-L281), carries S153; C-terminal His-tag versions were poorly expressed and not functional; N-terminal His-tag proteins were used; Mixture of trimer and monomer by SEC; also called Long^(L); huFasL^WT; source: Freestyle CHO-S cells, transfected, purified from supernatant (his-TRAP); not shown: His tag, N-terminal, …
With B3, the “stoichiometry N” value in data set [6] was 3.

B4: human Fas ligand extracellular domain, long form, S153P (HuFasL-S153P^L, 103-281) (domain or fragment, UniProt P48023 103-281, looked up)
chain: B3 chain with S51P
notes: human Fas ligand (FasL), residues 103-281 with S153P; The substitution was engineered here; source: Freestyle CHO-S cells, transfected, purified from supernatant (his-TRAP)
For B4, in data set [6], the “stoichiometry N” value is 3.

B5: Rhesus monkey Fas ligand extracellular domain, shorter form (RhFasL^S, 134-281) (domain or fragment, UniProt P63307 134-280, looked up)
chain: SPPPEKKEQRKVAHLTGKPNSRSMPLEWEDTYGIVLLSGVKYKKGGLVINETGLYFVYSKVYFRGQSCTNLPLSHKVYMRNSKYPQDLVMMEGKMMSYCTTGQMWAHSSYLGAVFNLTSADHLYVNVSELSLVNFEESQTFFGLYKL
notes: Rhesus monkey Fas ligand (FasL), residues 134-281, carries P153; source: Freestyle CHO-S cells, transfected, purified from supernatant (his-TRAP)
For the molecule B5, the “stoichiometry N” value in data set [6] turned out to be 3.

B6: Rhesus monkey Fas ligand extracellular domain, long form, His-tagged (RhFasL^L, 103-281) (domain or fragment, UniProt P63307 103-280, looked up)
chain: LFHLQKELAELRESTSQKHTASSLEKQIGHPSPPPEKKEQRKVAHLTGKPNSRSMPLEWEDTYGIVLLSGVKYKKGGLVINETGLYFVYSKVYFRGQSCTNLPLSHKVYMRNSKYPQDLVMMEGKMMSYCTTGQMWAHSSYLGAVFNLTSADHLYVNVSELSLVNFEESQTFFGLYKL
notes: Rhesus monkey Fas ligand (FasL), entire extracellular domain, residues 103-281, carries P153; source: Freestyle CHO-S cells, transfected, purified from supernatant (his-TRAP); not shown: His tag, N-terminal, kept
Consider B6, for which the “stoichiometry N” value in data set [6] came out at 3.
